Laboratory results as given in patent US12655398B2, “Multipartite luciferase” (Promega Corporation, priority 2018, dated 2026).

Experiments:
p65 = test: Nuclear translocation assay (p65-HiBiT HeLa cells, LgBiT*-nuclear sensor); assay type: cell-based; settings: for Time to reach maximum accumulation of p65 in the nucleus upon stimulation: real time measurement
Description: A nuclear translocation assay was developed using measuring p65 movement from cytosol to the nucleus under TNFa stimulus. The nuclear translocation assay was set up similar to the membrane translocation assay. […] The assay allows measurement of protein translocation in real time.

[1] = Effect of urea on activity; assay type: physicochemical
Description: To test activity in the presence of urea, each enzyme was diluted to 1 uM in TBS+0.01% BSA+0.01% Tergitol and further diluted to 2 nM in TBS+0.01% BSA+0.01% Tergitol. […] A two-fold titration series was prepared for each, starting with 10M urea in 25 mM Tris pH 7.5+0.01% Tergitol. 10 uM furimazine was added to each sample of the titration series, and 5 ul of each enzyme or enzyme+pep263 (SEQ ID NO: 35) were combined with 45 ul of each substrate additive mixture. Plates were incubated for 3 minutes and then read on GMM+.
To test the effect of prolonged exposure to urea, each enzyme was diluted to 1 uM, and a two-fold titration series was prepared starting with 10M urea in 25 mM Tris pH 7.5+0.01% Tergitol. 2 ul of each enzyme was added to 198 ul of the urea titration (10 nM final of each enzyme). The “no” additive control was TBS+0.01% BSA+0.01% Tergitol. Samples were incubated for 26 hours. After incubation, samples were diluted 1:10,000 into TBS+0.01% BSA+0.01% Tergitol (10 ul in 990 ul two times). […] 50 ul of each sample was combined with 50 ul of NanoGlo® buffer+50 uM Furimazine. Plates were incubated for 3 minutes and then read on GMM+.

[2] = test system: SmTrip10 pep86 and SmTrip9 pep245; test: LgTrip 2098 activation by separate β9 and β10-like peptides; assay type: biochemical; settings: 10× concentrated lysate, peptides at 500 nM
Description: The luminescence of LgTrip 2098 (SEQ ID NO: 31) was monitored over time in the presence of separate peptides corresponding to the β10 and β9 portions of the full-length luciferase (SmTrip10 pep86 (SEQ ID NO: 25) and SmTrip9 pep245) (SEQ ID NO: 23) (FIG. 2). Similar experimental protocols were used as in Example 1; however, a 10× concentrated lysate was used, Peptides SmTrip10 pep86 and SmTrip9 pep245 were used at 500 nM, and 0.001% Prionex added to reactions. […] Controls with no peptides added or only one of the peptides added produced near the background of the plate reader.

SmTrip10 pep86 / pep263 = test: Luminescence of LgBiT and LgTrip 2098 E. coli lysates with complementary peptide; assay type: biochemical; settings: E. coli lysate, 25 nM peptide
Description: (275 rpm) in a volume of 50 mL. From these cultures, 100× dilutions were made into the same media and the cultures grown at 37 C (275 rpm) for 3 h and then cooled to 25° C. before adding rhamnose (inducing agent for protein overexpression) to a final concentration of 0.2%. Cultures were then grown (induced) for 22 h at 25° C. (275 rpm) at which time cultures were harvested, and the resulting pellets stored at −20° C. until processing. To lyse cells, pellets were removed from −20° C., resuspended in 50 mL of PBS pH 7.2, and taken through 3 sequential freeze thaw cycles (−70° C. to 22° C.), centrifuged to produce soluble fractions, and then kept cold (on ice) until assaying. Lysates and peptide(s) (25 nm final concentration) were incubated together for 10 minutes at 25° C. prior to the addition of NanoGlo® reagent. After addition of reagent, plates were incubated for another 5 min at 35° C. and read over time to measure luminescence (RLU) using a Tecan Infinite F500 plate reader.

Effect of pH on activity = assay type: physicochemical; settings: pH titration series of universal buffer
Description: A universal buffer was prepared containing 25 mM of each: NaCitrate, MES, PIPES, HEPES, TAPS, and Thiourea in 0.5% Tergitol. The buffer was divided into 8 aliquots of 20 ml, and NaOH or HCl was added to create a pH titration series.
To test effect of pH on activity, each enzyme was diluted to 1 uM and then diluted to 0.4 nM in 3 ml of TBS+0.01% BSA+0.01% Tergitol. […] Assay reagent for each pH buffer tested (Table 5) (20 ul of furimazine in 980 of buffer). 10 ul of each enzyme/peptide dilution was combined with 50 ul of assay reagent. Plates were incubated for 3 minutes and read on GMM+.
To test the effect of prolonged exposure varying pH, each enzyme was diluted to 1 uM in TBS+0.01% BSA+0.01% Tergitol, which was then diluted to 20 nM in each buffer. T=0 samples were mixed and then diluted 1:10 into 200 mM HEPES pH 7.5+0.01% BSA+0.01% Tergitol and stored at 4° C. T=8 samples were mixed and then diluted 1:10 into 200 mM HEPES pH 7.5+0.01% BSA+0.01% Tergitol store at 4° C. T=24 samples were mixed and then diluted 1:10 into 200 mM HEPES pH 7.5+0.01% BSA+0.01% Tergitol store at 4° C. […] 40 ul of each sample was diluted with 40 ul of NanoGlo® buffer+40 uM furimazine, incubated for 3 minutes, and then read on GMM+.

TNFα
EC50, titration of TNFα (p65; p65-HiBiT cell line transfected with LgBiT*-nuclear sensor): 0.7 ng/mL
Fold-response, titration of TNFα (p65; p65-HiBiT cells, LgBiT*-nuclear sensor): 4 fold
Time to reach maximum accumulation of p65 in the nucleus upon stimulation (p65): 30 min
Time to reach maximum accumulation of p65 in the nucleus upon stimulation (p65; listed as TNFa): approximately 30 min

B1: LgTrip 2098: β1-8-like polypeptide, SEQ ID NO: 17; SEQ ID NO: 31 with His tag (protein)
chain: MVFTLEDFVGDWEQTAAYNLDQVLEQGGVSSLLQNLAVSVTPIQRIVRSGENALKIDIHVIIPYEGLSADQMAQIEEVFKVVYPVDDHHFKVILPYGTLVIDGVTPNMLNYFGRPYEGIAVFDGKKITVTGTLWNGNKIIDERLITPD
Activity after prolonged (26 hour) exposure to urea ([1]; 26 hours incubation in urea titration): regain activity upon prolonged treatment with urea
Activity in the presence of urea (susceptibility to inactivation) ([1]; urea titration from 10M, with pep263 for LgBiT and LgTrip): least effected by urea
Activation by separate β9 and β10 peptides [2]: activated by the addition of SmTrip10 pep86 and SmTrip9 pep245
Gain in signal in the presence of complementary peptide (SmTrip10 pep86 / pep263): greater

B2: LgTrip: β1-8-like polypeptide corresponding to SEQ ID NO: 17; variants LgTrip 2098 and LgTrip 3546 (protein)
chain: B1 chain
Effect of pH on activity (Effect of pH on activity): resistant to a wide pH range
